Test [1] has as its target T1, fibronectin (UniProt P02751 32-2477). Nature of the test: ELISA; wells coated with 10 μg/ml purified fibronectin in 0.05 M Na2CO3 pH 9.0; 0.03125-2 μM GST or GST-tagged OspC variants, 1 hr at ambient temperature; goat anti-GST and HRP-conjugated anti-goat IgG; estimated KD from a fit of OD405. To be noted: both partners purified.
The target of test [2] is T1, fibronectin. The experiment in a line: SPR; Biacore 3000; fibronectin on a CM5 chip; 0-500 nM untagged OspC variants injected at 10 μl/min, 25°C; 1:1 Langmuir model; KD from the average koff divided by kon of each run. The following applies: both partners purified. Background: SPR reads the build-up and loss of mass on a sensor chip optically.

This passage reports Kd, koff and kon results from PMC7255614, “Strain-specific joint invasion and colonization by Lyme disease spirochetes is promoted by outer surface protein C” (PLoS Pathogens, 2020).

One may read the Kd as the constant that tells how readily two partners part at equilibrium. Usually koff stands for the first-order rate constant of dissociation. Low values mean a long-lived complex, high ones a short-lived complex. As usually defined, the kon is a measure of how fast the partners come together. A low value points to slower complex formation.

T1 sequence (P02751 32-2477): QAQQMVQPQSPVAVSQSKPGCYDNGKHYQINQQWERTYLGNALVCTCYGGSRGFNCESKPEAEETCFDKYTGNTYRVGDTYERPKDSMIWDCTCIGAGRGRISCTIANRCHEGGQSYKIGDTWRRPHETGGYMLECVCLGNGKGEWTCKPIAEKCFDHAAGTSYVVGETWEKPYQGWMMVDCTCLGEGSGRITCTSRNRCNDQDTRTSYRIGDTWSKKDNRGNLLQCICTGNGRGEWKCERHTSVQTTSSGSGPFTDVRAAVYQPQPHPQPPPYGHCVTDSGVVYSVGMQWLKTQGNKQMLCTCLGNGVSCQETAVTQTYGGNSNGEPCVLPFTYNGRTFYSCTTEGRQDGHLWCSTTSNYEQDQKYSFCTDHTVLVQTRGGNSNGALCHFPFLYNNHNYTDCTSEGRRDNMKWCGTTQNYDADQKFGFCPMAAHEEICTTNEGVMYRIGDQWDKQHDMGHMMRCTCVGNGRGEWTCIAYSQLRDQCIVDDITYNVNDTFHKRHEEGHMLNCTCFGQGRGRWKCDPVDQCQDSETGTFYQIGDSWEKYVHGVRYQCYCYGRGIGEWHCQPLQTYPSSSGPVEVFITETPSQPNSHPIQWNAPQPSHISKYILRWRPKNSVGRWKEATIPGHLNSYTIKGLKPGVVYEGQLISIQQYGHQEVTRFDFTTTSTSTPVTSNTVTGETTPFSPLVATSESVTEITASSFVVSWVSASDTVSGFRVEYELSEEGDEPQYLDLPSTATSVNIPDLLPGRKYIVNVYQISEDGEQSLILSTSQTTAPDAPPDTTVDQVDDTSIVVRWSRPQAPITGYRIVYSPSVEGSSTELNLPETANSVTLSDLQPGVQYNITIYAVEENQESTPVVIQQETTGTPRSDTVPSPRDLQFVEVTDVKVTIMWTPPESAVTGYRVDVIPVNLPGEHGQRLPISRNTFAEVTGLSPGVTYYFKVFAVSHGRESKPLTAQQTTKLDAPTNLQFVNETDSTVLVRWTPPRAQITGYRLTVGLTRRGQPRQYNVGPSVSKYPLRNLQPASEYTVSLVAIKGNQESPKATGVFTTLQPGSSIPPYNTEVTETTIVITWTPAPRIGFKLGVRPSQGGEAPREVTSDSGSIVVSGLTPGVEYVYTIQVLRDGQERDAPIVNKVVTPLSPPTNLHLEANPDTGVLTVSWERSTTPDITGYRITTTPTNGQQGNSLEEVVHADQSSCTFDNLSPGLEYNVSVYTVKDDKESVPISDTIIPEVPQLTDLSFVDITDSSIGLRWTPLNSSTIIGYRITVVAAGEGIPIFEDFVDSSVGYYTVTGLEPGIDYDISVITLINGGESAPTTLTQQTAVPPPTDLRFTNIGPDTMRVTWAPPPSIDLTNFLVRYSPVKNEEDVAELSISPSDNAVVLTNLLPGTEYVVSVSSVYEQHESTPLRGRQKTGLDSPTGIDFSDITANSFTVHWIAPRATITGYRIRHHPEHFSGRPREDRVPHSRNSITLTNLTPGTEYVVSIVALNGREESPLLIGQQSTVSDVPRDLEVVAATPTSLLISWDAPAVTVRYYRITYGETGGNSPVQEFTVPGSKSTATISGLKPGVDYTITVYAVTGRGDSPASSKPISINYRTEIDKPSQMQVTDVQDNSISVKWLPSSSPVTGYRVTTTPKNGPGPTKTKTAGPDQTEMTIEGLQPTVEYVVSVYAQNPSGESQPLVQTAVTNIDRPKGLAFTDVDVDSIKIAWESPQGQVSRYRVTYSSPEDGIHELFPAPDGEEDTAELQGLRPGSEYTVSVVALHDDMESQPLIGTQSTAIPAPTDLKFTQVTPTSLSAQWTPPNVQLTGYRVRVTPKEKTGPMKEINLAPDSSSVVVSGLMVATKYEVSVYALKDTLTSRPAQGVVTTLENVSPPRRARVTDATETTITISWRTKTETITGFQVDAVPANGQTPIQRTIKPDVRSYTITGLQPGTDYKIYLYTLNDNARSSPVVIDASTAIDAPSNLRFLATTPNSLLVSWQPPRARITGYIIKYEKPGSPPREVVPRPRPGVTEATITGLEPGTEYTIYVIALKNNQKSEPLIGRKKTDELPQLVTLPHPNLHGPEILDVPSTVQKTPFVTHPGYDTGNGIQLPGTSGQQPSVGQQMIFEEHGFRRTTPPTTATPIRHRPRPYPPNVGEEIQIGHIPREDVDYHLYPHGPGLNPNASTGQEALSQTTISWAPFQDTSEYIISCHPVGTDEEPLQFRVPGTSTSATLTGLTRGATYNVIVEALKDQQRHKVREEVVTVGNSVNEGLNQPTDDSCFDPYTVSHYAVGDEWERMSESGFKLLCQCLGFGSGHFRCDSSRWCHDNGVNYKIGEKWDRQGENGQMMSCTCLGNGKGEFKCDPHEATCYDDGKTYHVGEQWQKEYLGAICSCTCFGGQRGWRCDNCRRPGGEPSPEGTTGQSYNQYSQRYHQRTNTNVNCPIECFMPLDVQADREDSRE

B1: GST-OspC_(VS461) (natural protein, B. afzelii strain VS461, UniProt Q0SL36 19-212, looked up)
chain: CNNSGKGGDSASTNPADESAKGPNLTEISKKITDSNAFVLAVKEVETLVLSIDELAKKAIGQKIDNNNGLAALNNQNGSLLAGAYAISTLITEKLSKLKNLEELKTEIAKAKKCSEEFTNKLKSGHADLGKQDATDDHAKAAILKTHATTDKGAKEFKDLFESVEGLLKAAQVALTNSVKELTSPVVAESPKKP
notes: Cloned into pGEX4T2 at BamHI and SalI; source: E. coli BL21(DE3), purified by glutathione chromatography
As to B1, in test [1], the Kd was 520 nM.

B2: OspC_(VS461), untagged (natural protein, B. afzelii strain VS461, UniProt Q0SL36 19-212, looked up)
chain: CNNSGKGGDSASTNPADESAKGPNLTEISKKITDSNAFVLAVKEVETLVLSIDELAKKAIGQKIDNNNGLAALNNQNGSLLAGAYAISTLITEKLSKLKNLEELKTEIAKAKKCSEEFTNKLKSGHADLGKQDATDDHAKAAILKTHATTDKGAKEFKDLFESVEGLLKAAQVALTNSVKELTSPVVAESPKKP
notes: OspC (outer surface protein C) of B. afzelii strain VS461, without GST tag; Probably the GST fusion with the tag removed
Take B2: in test [2], binding was characterised by a dissociation constant (Kd) of 0.8 µM, the koff was 0.09 s⁻¹ and the kon is 151000 M⁻¹ s⁻¹.

B3: GST-OspC_(B31-ECM)^- (natural protein, B. burgdorferi strain B31-A3, UniProt Q07337 19-210, looked up)
chain: CNNSGKDGNTSANSADESVKGPNLTEISKKITDSNAVLLAVKEVEALLSSIDEIAAKAIGKKIHQNNGLDTENNHNGSLLAGAYAISTLIKQKLDGLMNEGLMEMIDAAMMCSETFTNKLKEKHTDLGKEGVTDADAKEAILKTNGTKTKGAEELGKLFESVEVLSKAAKEMLANSVKELTSPVVAESPKKP
notes: Cloned into pGEX4T2 at BamHI and SalI; also called OspCECM^-; source: E. coli BL21(DE3), purified by glutathione chromatography
Turning to B3, the Kd in test [1] was 2140 nM.

B4: OspCB31, untagged (natural protein, B. burgdorferi strain B31-A3, UniProt Q07337 19-210, looked up)
chain: CNNSGKDGNTSANSADESVKGPNLTEISKKITDSNAVLLAVKEVEALLSSIDEIAAKAIGKKIHQNNGLDTENNHNGSLLAGAYAISTLIKQKLDGLKNEGLKEKIDAAKKCSETFTNKLKEKHTDLGKEGVTDADAKEAILKTNGTKTKGAEELGKLFESVEVLSKAAKEMLANSVKELTSPVVAESPKKP
notes: OspC (outer surface protein C) of B. burgdorferi strain B31-A3, without GST tag; Probably the GST fusion with the tag removed
Take B4: in test [2], the Kd is 9.21 µM, the koff was 0.13 s⁻¹ and the kon amounted to 19900 M⁻¹ s⁻¹.

B5: GST-OspCB31 (natural protein)
chain: CNNSGKDGNTSANSADESVKGPNLTEISKKITDSNAVLLAVKEVEALLSSIDEIAAKAIGKKIHQNNGLDTENNHNGSLLAGAYAISTLIKQKLDGLKNEGLKEKIDAAKKCSETFTNKLKEKHTDLGKEGVTDADAKEAILKTNGTKTKGAEELGKLFESVEVLSKAAKEMLANSVKELTSPVVAESPKKP
notes: Cloned into pGEX4T2 at BamHI and SalI; also called wild type OspCB31; source: E. coli BL21(DE3), purified by glutathione chromatography
In the case of B5, the Kd in test [1] was 3460 nM.
